Test results as given in IntAct's records for PubMed 18423202.

B1: Regulator of nonsense transcripts 1 (Homo sapiens), Q92900-2 (parent)
chain: MSVEAYGPSSQTLTFLDTEEAELLGADTQGSEFEFTDFTLPSQTQTPPGGPGGPGGGGAGGPGGAGAGAAAGQLDAQVGPEGILQNGAVDDSVAKTSQLLAELNFEEDEEDTYYTKDLPIHACSYCGIHDPACVVYCNTSKKWFCNGRGNTSGSHIVNHLVRAKCKEVTLHKDGPLGETVLECYNCGCRNVFLLGFIPAKADSVVVLLCRQPCASQSSLKDINWDSSQWQPLIQDRCFLSWLVKIPSEQEQLRARQITAQQINKLEELWKENPSATLEDLEKPGVDEEPQHVLLRYEDAYQYQNIFGPLVKLEADYDKKLKESQTQDNITVRWDLGLNKKRIAYFTLPKTDSDMRLMQGDEICLRYKGDLAPLWKGIGHVIKVPDNYGDEIAIELRSSVGAPVEVTHNFQVDFVWKSTSFDRMQSALKTFAVDETSVSGYIYHKLLGHEVEDVIIKCQLPKRFTAQGLPDLNHSQVYAVKTVLQRPLSLIQGPPGTGKTVTSATIVYHLARQGNGPVLVCAPSNIAVDQLTEKIHQTGLKVVRLCAKSREAIDSPVSFLALHNQIRNMDSMPELQKLQQLKDETGELSSADEKRYRALKRTAERELLMNADVICCTCVGAGDPRLAKMQFRSILIDESTQATEPECMVPVVLGAKQLILVGDHCQLGPVVMCKKAAKAGLSQSLFERLVVLGIRPIRLQVQYRMHPALSAFPSNIFYEGSLQNGVTAADRVKKGFDFQWPQPDKPMFFYVTQGQEEIASSGTSYLNRTEAANVEKITTKLLKAGAKPDQIGIITPYEGQRSYLVQYMQFSGSLHTKLYQEVEIASVDAFQGREKDFIILSCVRANEHQGIGFLNDPRRLNVALTRARYGVIIVGNPKALSKQPLWNHLLNYYKEQKVLVEGPLNNLRESLMQFSKPRKLVNTINPGARFMTTAMYDAREAIIPGSVYDRSSQGRPSSMYFQTHDQIGMISAGPSHVAAMNIPIPFNLVMPPMPPPGYFGQANGPAAGRGTPKGKTGRGGRQKNRFGLPGPSQTNLPNSQASQDVASQPFSQGALTQGYISMSQPSQMSQPGLSQPELSQDSYLGDEFKSQIDVALSQDSTYQGERAYQHGGVTGLSQY

Variants of: B1
Conditions: with eif3a_human EIF3A

| effect of a mutation on the interaction | Variant |
| --- | --- |
| increasing interaction | G495R;G497E |

Variants of: B1
Conditions: with eif3a_human EIF3A
Remark: another data set of the same source

| effect of a mutation on the interaction | Variant |
| --- | --- |
| increasing interaction | G495R;G497E |
